According to paper PMC2756588:

T1: Abp1, P15891
T1 sequence (P15891 535-592, looked up): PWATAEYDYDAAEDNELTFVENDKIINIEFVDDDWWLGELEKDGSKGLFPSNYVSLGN

T2: Bbc1, P47068
T2 sequence (P47068 1-78, looked up): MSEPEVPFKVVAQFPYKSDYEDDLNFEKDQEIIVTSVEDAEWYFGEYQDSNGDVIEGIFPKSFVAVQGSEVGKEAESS

T3: Boi1, P38041
T3 sequence (P38041 1-86, looked up): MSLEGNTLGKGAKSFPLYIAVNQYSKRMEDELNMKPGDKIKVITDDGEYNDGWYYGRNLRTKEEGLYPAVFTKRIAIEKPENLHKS

T4: Boi2, P39969
T4 sequence (P39969 32-116, looked up): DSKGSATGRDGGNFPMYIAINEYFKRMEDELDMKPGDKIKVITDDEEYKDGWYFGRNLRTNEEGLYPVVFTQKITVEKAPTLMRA

T5: Bud14, P27637
T5 sequence (P27637 247-328, looked up): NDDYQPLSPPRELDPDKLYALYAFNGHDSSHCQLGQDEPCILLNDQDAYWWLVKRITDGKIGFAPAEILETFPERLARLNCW

T6: Bzz1-1, P38822
T6 sequence (P38822 478-572, looked up): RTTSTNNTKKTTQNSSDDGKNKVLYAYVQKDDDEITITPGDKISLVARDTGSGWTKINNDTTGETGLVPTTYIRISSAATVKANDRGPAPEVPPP

T7: Bzz1-2, P38822
T7 sequence (P38822 568-633, looked up): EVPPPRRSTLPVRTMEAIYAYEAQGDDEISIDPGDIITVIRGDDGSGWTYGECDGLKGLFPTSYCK

T8: Cdc25, P04821
T8 sequence (P04821 50-136, looked up): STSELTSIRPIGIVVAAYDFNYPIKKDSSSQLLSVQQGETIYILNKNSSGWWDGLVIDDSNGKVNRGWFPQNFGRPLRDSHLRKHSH

T9: Cyk3, Q07533
T9 sequence (Q07533 1-83, looked up): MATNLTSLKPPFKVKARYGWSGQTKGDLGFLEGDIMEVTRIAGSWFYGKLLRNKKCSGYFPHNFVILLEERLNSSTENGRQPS

T10: Fus1, P11710
T10 sequence (P11710 432-512, looked up): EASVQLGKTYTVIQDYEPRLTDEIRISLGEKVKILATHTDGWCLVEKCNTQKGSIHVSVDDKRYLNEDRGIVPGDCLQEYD

T11: Hof1, Q05080
T11 sequence (Q05080 590-669, looked up): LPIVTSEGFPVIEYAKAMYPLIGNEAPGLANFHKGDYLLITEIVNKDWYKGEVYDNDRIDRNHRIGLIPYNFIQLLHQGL

T12: Hse1, P38753
T12 sequence (P38753 208-285, looked up): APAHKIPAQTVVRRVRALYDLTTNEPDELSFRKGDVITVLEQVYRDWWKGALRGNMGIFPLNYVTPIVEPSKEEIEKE

T13: Lsb1, P53281
T13 sequence (P53281 45-122, looked up): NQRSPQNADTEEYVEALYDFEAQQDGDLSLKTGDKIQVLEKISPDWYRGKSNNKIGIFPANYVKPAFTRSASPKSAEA

T14: Lsb3, P43603
T14 sequence (P43603 385-451, looked up): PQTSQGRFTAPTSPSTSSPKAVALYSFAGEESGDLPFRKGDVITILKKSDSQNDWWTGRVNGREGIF

T15: Lsb4, P32793
T15 sequence (P32793 402-468, looked up): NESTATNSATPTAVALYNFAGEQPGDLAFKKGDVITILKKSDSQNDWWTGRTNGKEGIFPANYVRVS

T16: Myo5, Q04439
T16 sequence (Q04439 1072-1160, looked up): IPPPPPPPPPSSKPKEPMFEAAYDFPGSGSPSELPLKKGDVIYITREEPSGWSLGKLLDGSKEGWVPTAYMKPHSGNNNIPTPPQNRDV

T17: Nbp2, Q12163
T17 sequence (Q12163 103-180, looked up): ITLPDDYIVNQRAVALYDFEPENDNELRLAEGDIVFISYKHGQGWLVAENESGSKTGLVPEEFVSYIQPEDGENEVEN

T18: Pex13, P80667
T18 sequence (P80667 295-386, looked up): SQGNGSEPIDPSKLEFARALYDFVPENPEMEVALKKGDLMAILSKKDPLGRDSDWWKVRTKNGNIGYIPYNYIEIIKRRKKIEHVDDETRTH

T19: Pin3, Q06449
T19 sequence (Q06449 53-122, looked up): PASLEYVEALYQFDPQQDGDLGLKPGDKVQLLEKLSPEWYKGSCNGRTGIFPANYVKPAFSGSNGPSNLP

T20: Sla1-2, P32790
T20 sequence (P32790 60-140, looked up): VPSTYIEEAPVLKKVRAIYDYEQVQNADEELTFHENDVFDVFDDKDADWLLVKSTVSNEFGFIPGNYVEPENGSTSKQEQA

T21: Sla1-3, P32790
T21 sequence (P32790 344-424, looked up): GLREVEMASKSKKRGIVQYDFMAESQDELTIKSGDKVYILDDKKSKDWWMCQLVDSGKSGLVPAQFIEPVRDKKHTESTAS

B1: unnamed (peptide)
chain: IAPIPMPKPNPTHIS
B2: unnamed (peptide)
chain: RPVPRRPSQPLNTLS
B3: unnamed (peptide)
chain: AHFQPQRTAPKPPIS

Each binder was assayed against T1, Abp1, P15891 (assay: SPOT array). Conditions: median of control spots 935.

SPOT intensity | Binder
44 | B1
125 | B2
19 | B3

Each binder was assayed against T2, Bbc1, P47068 (assay: SPOT array). Conditions: median of control spots 796.

SPOT intensity | Binder
0 | B1
423 | B2
101 | B3

What follows are binders tested against Bem1-1, P29366 (assay: SPOT array). Conditions: median of control spots 4282.
Chain of Bem1-1, P29366 (P29366 55-141): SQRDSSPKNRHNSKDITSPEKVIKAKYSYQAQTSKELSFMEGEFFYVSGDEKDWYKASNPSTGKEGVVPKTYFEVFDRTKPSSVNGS

SPOT intensity | Binder
0 | B1
0 | B2
0 | B3

These binders were tested against Bem1-2, P29366 (assay: SPOT array). Conditions: median of control spots 4347.
Chain of Bem1-2, P29366 (P29366 139-227): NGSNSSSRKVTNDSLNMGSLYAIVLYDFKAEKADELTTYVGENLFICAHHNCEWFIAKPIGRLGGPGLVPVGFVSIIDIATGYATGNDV

SPOT intensity | Binder
0 | B1
75 | B2
1860 | B3

The binders below were run against T3, Boi1, P38041 (assay: SPOT array). Conditions: median of control spots 1162.

SPOT intensity | Binder
0 | B1
0 | B2
0 | B3

The binders below were run against T4, Boi2, P39969 (assay: SPOT array). Conditions: median of control spots 1161.

SPOT intensity | Binder
1 | B1
1 | B2
0 | B3

The binders below were run against T5, Bud14, P27637 (assay: SPOT array). Conditions: median of control spots 956.

SPOT intensity | Binder
0 | B1
11 | B2
1 | B3

These binders were tested against T6, Bzz1-1, P38822 (assay: SPOT array). Conditions: median of control spots 4446.

SPOT intensity | Binder
0 | B1
0 | B2
1 | B3

What follows are binders tested against T7, Bzz1-2, P38822 (assay: SPOT array). Conditions: median of control spots 4538.

SPOT intensity | Binder
0 | B1
13 | B2
0 | B3

The binders below were run against T8, Cdc25, P04821 (assay: SPOT array). Conditions: median of control spots 969.

SPOT intensity | Binder
0 | B1
37 | B2
5 | B3

Each binder was assayed against T9, Cyk3, Q07533 (assay: SPOT array). Conditions: median of control spots 1451.

SPOT intensity | Binder
1 | B1
1 | B2
0 | B3

The binders below were run against T10, Fus1, P11710 (assay: SPOT array). Conditions: median of control spots 1200.

SPOT intensity | Binder
0 | B1
0 | B2
0 | B3

These binders were tested against GST (assay: SPOT array). Conditions: median of control spots 978.

SPOT intensity | Binder
0 | B1
0 | B2
0 | B3

These binders were tested against T11, Hof1, Q05080 (assay: SPOT array). Conditions: median of control spots 4086.

SPOT intensity | Binder
0 | B1
13 | B2
0 | B3

Each binder was assayed against T12, Hse1, P38753 (assay: SPOT array). Conditions: median of control spots 1727.

SPOT intensity | Binder
0 | B1
34 | B2
0 | B3

What follows are binders tested against T13, Lsb1, P53281 (assay: SPOT array). Conditions: median of control spots 388.

SPOT intensity | Binder
2 | B1
94 | B2
17 | B3

These binders were tested against T14, Lsb3, P43603 (assay: SPOT array). Conditions: median of control spots 406.

SPOT intensity | Binder
0 | B1
138 | B2
0 | B3

The binders below were run against T15, Lsb4, P32793 (assay: SPOT array). Conditions: median of control spots 397.

SPOT intensity | Binder
9 | B1
163 | B2
4 | B3

The binders below were run against Myo3, P36006 (assay: SPOT array). Conditions: median of control spots 468.

SPOT intensity | Binder
22 | B1
5 | B2
413 | B3

These binders were tested against T16, Myo5, Q04439 (assay: SPOT array). Conditions: median of control spots 471.

SPOT intensity | Binder
7 | B1
0 | B2
104 | B3

Each binder was assayed against T17, Nbp2, Q12163 (assay: SPOT array). Conditions: median of control spots 357.

SPOT intensity | Binder
1 | B1
71 | B2
750 | B3

The binders below were run against T18, Pex13, P80667 (assay: SPOT array). Conditions: median of control spots 1341.

SPOT intensity | Binder
54 | B1
348 | B2
13 | B3

What follows are binders tested against T19, Pin3, Q06449 (assay: SPOT array). Conditions: median of control spots 2171.

SPOT intensity | Binder
43 | B1
26 | B2
5 | B3

What follows are binders tested against Rvs167, P39743 (assay: SPOT array). Conditions: median of control spots 2707.
Chain of Rvs167, P39743 (P39743 419-482): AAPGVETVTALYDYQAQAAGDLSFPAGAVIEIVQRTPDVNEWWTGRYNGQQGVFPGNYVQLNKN

SPOT intensity | Binder
0 | B1
4060 | B2
0 | B3

Each binder was assayed against Sho1, P40073 (assay: SPOT array). Conditions: median of control spots 1148.
Chain of Sho1, P40073 (P40073 287-367): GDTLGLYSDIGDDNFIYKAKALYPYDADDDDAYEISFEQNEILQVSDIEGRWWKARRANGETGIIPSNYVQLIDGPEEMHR

SPOT intensity | Binder
0 | B1
95 | B2
1 | B3

What follows are binders tested against T20, Sla1-2, P32790 (assay: SPOT array). Conditions: median of control spots 712.

SPOT intensity | Binder
1 | B1
0 | B2
0 | B3

Each binder was assayed against T21, Sla1-3, P32790 (assay: SPOT array). Conditions: median of control spots 5475.

SPOT intensity | Binder
0 | B1
31 | B2
4 | B3
